According to patent US20180071366A1:
Numbered stars: 1 amine (or outer) side, 2 acyl side, 3 side chain; on linkers, the order of the positions; unused ones are H or OH. Bridge positions count the residues as written; N and C are the ends. Square brackets hold non-standard residues; d marks the D form. * marks the point of attachment. C20 diacid = O=C(O)CCCCCCCCCCCCCCCCCCC(=O)*; γGlu = O=C(O)[C@H](CCC(=O)[*:2])N[*:1]; Hyp = O=C(O)[C@@H]1C[C@@H](O)CN1; NMeI = CC[C@H](C)[C@H](NC)C(=O)O; Orn = NCCC[C@H](N)C(=O)O; Dap = NC[C@H](N)C(=O)O; Sar = CNCC(=O)O

Legend:
[1] = target: recombinant human calcitonin receptor (hCT-R) (human), P30988; assay: cell-based or functional assay
Chain of recombinant human calcitonin receptor (hCT-R) (human), P30988 (P30988 25-474): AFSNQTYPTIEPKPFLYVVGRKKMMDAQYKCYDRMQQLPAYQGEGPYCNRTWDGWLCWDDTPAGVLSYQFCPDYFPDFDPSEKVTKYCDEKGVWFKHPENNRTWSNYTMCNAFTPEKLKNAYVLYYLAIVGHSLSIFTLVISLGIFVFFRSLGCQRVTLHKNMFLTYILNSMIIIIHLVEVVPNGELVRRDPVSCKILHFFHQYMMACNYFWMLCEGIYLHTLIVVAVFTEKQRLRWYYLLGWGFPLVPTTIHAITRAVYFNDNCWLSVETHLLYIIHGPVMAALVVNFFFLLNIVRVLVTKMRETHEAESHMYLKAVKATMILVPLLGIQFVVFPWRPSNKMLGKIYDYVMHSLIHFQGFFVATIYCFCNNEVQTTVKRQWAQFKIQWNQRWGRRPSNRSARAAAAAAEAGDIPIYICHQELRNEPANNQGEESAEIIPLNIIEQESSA

[2] = target: recombinant human amylin 3 receptor (hAMYR3) (human), P30988; assay: cell-based or functional assay
Chain of recombinant human amylin 3 receptor (hAMYR3) (human), P30988 (P30988 25-474, chain 1 of 2): as the sequence (P30988 25-474) above
Chain of recombinant human amylin 3 receptor (hAMYR3) (human), P30988 (O60896 24-148, chain 2 of 2, further chain): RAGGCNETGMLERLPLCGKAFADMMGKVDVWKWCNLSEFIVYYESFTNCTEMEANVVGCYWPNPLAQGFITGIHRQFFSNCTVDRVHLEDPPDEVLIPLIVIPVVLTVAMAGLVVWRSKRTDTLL

B1: Compound 1 (peptide)
peptide: {C20 diacid-γGlu}-RDGTAT[Dap]ATERLAHFLQRSSF[Sar]A[NMeI]LSSTEVGSNT[Hyp]-NH2
modifications: lactam 2-7
SMILES: CC[C@H](C)[C@@H](C(=O)N[C@@H](CC(C)C)C(=O)N[C@@H](CO)C(=O)N[C@@H](CO)C(=O)N[C@H](C(=O)N[C@@H](CCC(=O)O)C(=O)N[C@H](C(=O)NCC(=O)N[C@@H](CO)C(=O)N[C@@H](CC(N)=O)C(=O)N[C@H](C(=O)N1C[C@H](O)C[C@H]1C(N)=O)[C@@H](C)O)C(C)C)[C@@H](C)O)N(C)C(=O)[C@H](C)NC(=O)CN(C)C(=O)[C@H](Cc1ccccc1)NC(=O)[C@H](CO)NC(=O)[C@H](CO)NC(=O)[C@H](CCCNC(=N)N)NC(=O)[C@H](CCC(N)=O)NC(=O)[C@H](CC(C)C)NC(=O)[C@H](Cc1ccccc1)NC(=O)[C@H](Cc1c[nH]cn1)NC(=O)[C@H](C)NC(=O)[C@H](CC(C)C)NC(=O)[C@H](CCCNC(=N)N)NC(=O)[C@H](CCC(=O)O)NC(=O)[C@@H](NC(=O)[C@H](C)NC(=O)[C@@H]1CNC(=O)C[C@H](NC(=O)[C@H](CCCNC(=N)N)NC(=O)CC[C@H](NC(=O)CCCCCCCCCCCCCCCCCCC(=O)O)C(=O)O)C(=O)NCC(=O)N[C@@H]([C@@H](C)O)C(=O)N[C@@H](C)C(=O)N[C@@H]([C@@H](C)O)C(=O)N1)[C@@H](C)O
Binder B1 has a hCT-R EC50 [nM] (cAMP formation, 1321N1 cells expressing hCT-R) [1] of 13.6 nM and a hAMYR3 EC50 [nM] (cAMP formation, 1321N1 cells expressing hAMYR3) [2] of 9.3 nM.

B2: Compound 5 (peptide)
peptide: {C20 diacid-γGlu}-RDGTAT[Orn]ATERLAHFLQRSSF[Sar]A[NMeI]PSSTEVGSNT[Hyp]-NH2
modifications: lactam 2-7
SMILES: CC[C@H](C)[C@@H](C(=O)N1CCC[C@H]1C(=O)N[C@@H](CO)C(=O)N[C@@H](CO)C(=O)N[C@H](C(=O)N[C@@H](CCC(=O)O)C(=O)N[C@H](C(=O)NCC(=O)N[C@@H](CO)C(=O)N[C@@H](CC(N)=O)C(=O)N[C@H](C(=O)N1C[C@H](O)C[C@H]1C(N)=O)[C@@H](C)O)C(C)C)[C@@H](C)O)N(C)C(=O)[C@H](C)NC(=O)CN(C)C(=O)[C@H](Cc1ccccc1)NC(=O)[C@H](CO)NC(=O)[C@H](CO)NC(=O)[C@H](CCCNC(=N)N)NC(=O)[C@H](CCC(N)=O)NC(=O)[C@H](CC(C)C)NC(=O)[C@H](Cc1ccccc1)NC(=O)[C@H](Cc1c[nH]cn1)NC(=O)[C@H](C)NC(=O)[C@H](CC(C)C)NC(=O)[C@H](CCCNC(=N)N)NC(=O)[C@H](CCC(=O)O)NC(=O)[C@@H](NC(=O)[C@H](C)NC(=O)[C@@H]1CCCNC(=O)C[C@H](NC(=O)[C@H](CCCNC(=N)N)NC(=O)CC[C@H](NC(=O)CCCCCCCCCCCCCCCCCCC(=O)O)C(=O)O)C(=O)NCC(=O)N[C@@H]([C@@H](C)O)C(=O)N[C@@H](C)C(=O)N[C@@H]([C@@H](C)O)C(=O)N1)[C@@H](C)O
Work on B2 yielded a hCT-R EC50 [nM] (cAMP formation, 1321N1 cells expressing hCT-R) [1] of 0.114 nM and a hAMYR3 EC50 [nM] (cAMP formation, 1321N1 cells expressing hAMYR3) [2] of 0.032 nM.
